# The nanobody polyreactivity screen of Harvey et al. (2022)
# Test: yeast display, Sf9 membrane polyspecificity reagent, FACS + sequencing; frameworks hold sequencing errors
# Procedure, shortened: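 Sorting gates, low and high (top ~1%), were placed on anti-HA fluorescence to track expression and on streptavidin fluorescence to track reagent binding. A clone's polyreactivity label is taken from the gate it came out of. The reagent was 10% biotinylated, detergent-solubilized Sf9 membrane, applied for 1 hour at 4 °C to galactose-induced yeast display cells.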
row,Sequence,polyreactivity (PSR sort gate)
1,QVQLVESGGGLVQAGGSLRLIFAASGRIFRPNAMGWYRQAPGKEREFVAAITSSSGTTYYADSVKGRFTISRDNAKNTVYLQMNSLKPEDSAVYYCAAKYTSRSYKYDYWGQGTQVTVSS,high polyreactivity
2,QVQLVESGGGLVQAGGSLRLIGAASGRSLYVYEMGWYRQAPGNDRELVAAISRGGGRTYYADSVKRRFTISRDKAKNTVYVQRNSLKPEDTAVYYGAAPLLIGVSTYRIAPRSGYWGQGTQVTLSS,high polyreactivity
3,QVQLVESGGGLVQAGGSLRLISAASGRIFDLYTMGWYRQAPGKERELVAAIRWSHGSTYYADSVKGRFTISRDNAKNTVYLQMNSLKPEDTAVYYCAADTRTSYYNDDYDYWGQGTQVTVSS,low polyreactivity
4,QVQLVESGGGLVQAGGSLRLISAASGSTFDSYAMGWYRPAPGKERELVAAITRSVGSTYYADSVKGRFTISRDNAKNTVYLHMNSVKPEVTAVYYCAARGEWAIYVEFDYWGQGTQVTVSS,low polyreactivity
5,QVQLVESGGGLVQAGGSLRLISAASGSTIIRNAMGWYRQAPGKERELVAAISTSGGRTHYADSVKGRFTISRDNAKTTVYLQMNSLKPEDTAVYDCAASNGYQAVTYDYWGQGTQVTVSS,high polyreactivity
6,QVQLVESGGGLVQAGGSLRLNCAASGSTFFGNAMGWYRQAPGKERELVAAISGSGGSTYYADSVKGRFTISRDNAKNTVYLQMNSLKPEDTAVYYCAKYYLTGLARYDYWGQGTQVTVSS,high polyreactivity
7,QVQLVESGGGLVQAGGSLRLNCSAYGSTFFDYVMGWYRQAPGKERDLVAAITRGGSSNYADSVKGRFTISRDNAKNTVYLQMNRLKPEDTAVYYCNAKRDKGFYWWYNYWGQGNQVTVSS,high polyreactivity
8,QVQLVESGGGLVQAGGSLRLNSAASGSIFYRYAMRWYRQAPGKERELVAAISSNGGRTYYADSVKGRFTISRDNSKNTVYLQMNSLKPEDTAVYYCATLPGYSMDYWGQGTQVTVSS,high polyreactivity
9,QVQLVESGGGLVQAGGSLRLRCAASGFIFDYYAMGWYRQAPGKEWELVAGISWSGGSTYYADSVKGRFTISRDNAKNTVYLQMNSLKPEDTAVYYCATDDYLVIFEYDYWGQGTQVTVSS,low polyreactivity
10,QVQLVESGGGLVQAGGSLRLRCAASGFIFGRYTMGWYRQAPGKERELVAAISSRGGSTYYADSVKGRFTISRDNAKNTVYLQMNSLKPEDTAVYYCAADEIYCYDYWGQGTQVTVSS,high polyreactivity
11,QVQLVESGGGLVQAGGSLRLRCAASGFIFRHNAMGWYRQAPGKAREFVAAISISGGSTYYADSVKGRFTISRDNAKNTVYLQMNSLKPEDTAVYYCNARSMGNTYLLYDYWGQGTQVTFSS,low polyreactivity
12,QVQLVESGGGLVQAGGSLRLRCAASGFIFVAYAMGWYIQAPGKERELVAAISWSGGSTYADSVKGRFTISRHNAKNTVYLQMNSLKPEDTAVYYCDARTSPIKTNNWYSQRYDSWGQGTQVTVSS,low polyreactivity
13,QVQLVESGGGLVQAGGSLRLRCAASGFIYLKYDMGWYRQAPGKERELVDRITSTGGSTYYADSVKGRFTISRDNAKNTVYLQMNSLKPEDTAVYYCAAVYISRNFFGRARGDYWGQGTQVTVSS,low polyreactivity
14,QVQLVESGGGLVQAGGSLRLRCAASGFTFFAYALGWYRQAPGKESELVAGISRSGGRTYYADSVKWRFTISRDNAKNTVYLQMNSLKPEDTAVYYCAAGIPVTSRHLGYWGQGTQVTVSS,high polyreactivity
15,QVQLVESGGGLVQAGGSLRLRCAASGFTFGAYAMGWYRQAPGKERELVATIDWRGSSTYYADSVKGRFTISRDNAKNTVYLQMNSLKPEDTAVYYCAARLARGSYAYEYWGQGTQVTVSS,low polyreactivity
16,QVQLVESGGGLVQAGGSLRLRCAASGFTFRFYAMGWYRQAPGKERELVAAISSTGIRTYYADSVKGRFTISRDNAKNTVYLQMNSLKPEDTAFYYCAILHRDSILDYWGQGTQVTVAS,high polyreactivity
17,QVQLVESGGGLVQAGGSLRLRCAASGFTFTRYAMGWYRQAPGKERELVAVITSTAGSTYYADSVKGRFTISRDNAKNTVYLQMNSLKPEDTAVYYCAAESLVHGDVTLEEVVAQSYDYWGQGTQVTVSS,low polyreactivity
18,QVQLVESGGGLVQAGGSLRLRCAASGGIFGRYAMGWNRQAPGKERELVAAISSRGGSTYYADSVKGRFTISRDNAKNTVYLQMNSLKPEDTAVYYCNALWVSYYTFRMDYWGQGTQVTVSS,high polyreactivity
19,QVQLVESGGGLVQAGGSLRLRCAASGIIFEYYAMGLYRQAPGKERELVAAITRGGTTYYADSVKGRFTISRDNAKNTVYLQMNSLKPEDTAVYYCNADSVAYGDEYDFWGQGTQVTVSS,low polyreactivity
20,QVQLVESGGGLVQAGGSLRLRCAASGITFKTYAMGWYRQAPGKERELVATINRGSRTNYADSVKGRFTISRDNAKNTVYLKMNSLKPEDTAVYYCAAHYTTFIPSPDGDYLGQGTQVTVSS,low polyreactivity
21,QVQLVESGGGLVQAGGSLRLRCAASGITFRYYAMGWYRQAPGQERELVAAITRSGSTTYADSVKGRFTISRDNAKNTVYLQLNSLKPEDTAVYYCAVDYYYLTGGVDYWGQGTQVTVSS,low polyreactivity
